Measurements as given in US20240287184A1 (GUANGDONG FAPON BIOPHARMA, published 2024).

Legend:
[1] = target: T1, recombinant human PD-1 expressed on the surface of CHO cells (CHO-hPD1) (human, UniProt Q15116 25-288); assay: flow cytometry, blocking of PD-L1-hFc binding to CHO-hPD1, mode 1 (ligand first)
T1 construct: whole, on cells; also called CHO-PD1; hPD1-transfected CHO cells
Procedure: (§1) The ability of the anti-PD-1 mouse monoclonal antibody to block the binding of the ligand to a PD-1 stably expressed on the surface of transfected CHO cells was analyzed by a flow cytometer.
(§2) The cells were centrifuged at 300 g for 5 minutes, washed once with the buffer, added with a PE-labeled goat anti-human IgG fluorescent antibody (Biolegend), and incubated at 4° C. for 30 minutes. The cells were centrifuged and washed once, then resuspended in PBS, and subsequently analyzed by a CytoFlex flow cytometer to detect the quantity of the ligand protein bound to the cells, and calculate the IC₅₀ value of the PD-1 antibody in blocking the binding.

[2] = target: T2, mouse PD1 expressed on the surface of CHO cells (CHO-mousePD1) (mouse, UniProt Q02242 25-288); assay: flow cytometry on CHO-mousePD1 cells
T2 construct: whole, on cells; also called CHO-mPD1
T2 sequence (looked up): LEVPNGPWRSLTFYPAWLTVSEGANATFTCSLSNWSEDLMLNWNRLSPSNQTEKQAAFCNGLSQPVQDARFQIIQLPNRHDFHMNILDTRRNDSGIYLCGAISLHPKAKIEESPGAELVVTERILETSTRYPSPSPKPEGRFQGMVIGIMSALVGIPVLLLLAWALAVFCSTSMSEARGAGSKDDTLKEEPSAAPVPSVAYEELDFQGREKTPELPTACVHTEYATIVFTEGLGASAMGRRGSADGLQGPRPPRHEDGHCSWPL
Procedure: (§3) In order to evaluate the binding of the anti-PD-1 mouse monoclonal antibody to the CHO-h PD1, 2×10⁵ CHO-hPD1 cells and an anti-PD-1 mouse monoclonal antibody diluted in concentration gradient (with an initial concentration of 10 μg/mL, and diluted in 3-fold gradient) were added into a 96-well plate, and incubated at 4° C. for 30 minutes. The cells were washed once with a buffer (PBS containing 3% BSA) and then added with a PE-labeled anti-mouse IgG (Fc) Ab (Biolegend) fluorescent secondary antibody, incubated at 4° C. for 30 minutes, then washed once with the buffer and subsequently resuspended in PBS. Thereafter, the cell suspension was subjected to flow cytometric analysis by CytoFlex (Beckman flow cytometer), and the quantity of the antibody bound to the cells was measured according to the mean fluorescence intensity (MFI) of the staining. The same method was used for evaluating the binding of the anti-PD-1 mouse monoclonal antibody to the CHO-cyno cells and the CHO-mousePD1 (sometimes abbreviated as “CHO-mPD1” in the application) cells.

[3] = target: T1, recombinant human PD-1 expressed on the …; assay: flow cytometry, blocking of PD-L1-hFc binding to CHO-hPD1, mode 2 (antibody first)
Procedure: as §1, §2

[4] = target: T1, recombinant human PD-1 expressed on the …; assay: flow cytometry, blocking of PD-L2-hFc binding to CHO-hPD1, mode 2 (antibody first)
Procedure: as §1, §2

human CD28-hFc [5] = target: T3, human CD28-hFc (human, UniProt P10747 19-152); assay: ELISA, antigen coated at 1 µg/mL
T3 construct: Commercial protein; also called CD28 (ACRO); not shown: human Fc (hFc)
From the text: (§4) A horse radish peroxidase (HRP)-coupled anti-human IgG (F) was used as the secondary antibody. After developed with TMB and terminated, it was read for an OD450 value with a microplate reader.

human ICOS-hFc [6] = target: T4, human ICOS-hFc (human, UniProt Q9Y6W8 21-140); assay: ELISA, antigen coated at 1 µg/mL
T4 construct: Commercial protein; also called ICOS (ACRO); not shown: human Fc (hFc)
T4 sequence (looked up): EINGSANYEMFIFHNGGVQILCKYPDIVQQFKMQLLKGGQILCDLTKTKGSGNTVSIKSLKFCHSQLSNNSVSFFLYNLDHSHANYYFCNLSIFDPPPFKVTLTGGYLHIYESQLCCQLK
From the text: as §4

human CTLA4-hFc [7] = target: T5, human CTLA4-hFc (human, UniProt P16410 37-162, limits assumed); assay: ELISA, antigen coated at 1 µg/mL
T5 construct: Commercial protein; also called CTLA-4 (ACRO); not shown: human Fc (hFc)
From the text: as §4

[8] = target: T6, PD1 naturally expressed by activated human lymphocytes (PHA-activated PBMC) (human, UniProt Q15116 25-288); assay: flow cytometry on PHA-activated human PBMC
T6 construct: whole, on cells; Also used as the target for the mixed lymphocyte reaction (human T cells)
Procedure: After being obtained from fresh human peripheral blood by gradient centrifugation of lymphatic separation medium, the PBMCs were adjusted to the density of 1×10⁶ cells/mL and inoculated into T75, and meanwhile added with PHA-L (Sigma) at a final concentration of 1 μg/mL to stimulate the proliferation of lymphocytes. After being allowed to stand in an incubator at 37° C. and 5% CO₂ for 3 days, the cell suspension was taken out and centrifuged. […] The cells were washed once with the buffer, and added with a PE-labeled goat anti-human IgG fluorescent antibody (Biolegend), and incubated at 4° C. for 30 minutes.

[9] = target: T7, PD-1-his (ACRO) recombinant protein (UniProt Q15116 25-167); assay: BLI (ForteBio Octet), PD-1-his loaded on sensor, antibody in solution
T7 construct: Commercial protein; not shown: his tag
Procedure: Finally, analysis was conducted by utilizing a kinetic model.

[10] = target: T8, monkey PD1 expressed on the surface of CHO cells (CHO-cynoPD1) (monkey); assay: flow cytometry on CHO-cynoPD1 cells
T8 construct: whole, on cells
Procedure: as §3

[11] = target: T1, recombinant human PD-1 expressed on the …; assay: flow cytometry, blocking of PD-L2-hFc binding to CHO-hPD1, mode 1 (ligand first)
Procedure: as §1, §2

human CD28-hFc [12] = target: T3, human CD28-hFc; assay: ELISA, antigen coated at 1 µg/mL, antibody 10 µg/mL
From the text: (§5) The anti-PD-1 mouse monoclonal antibody was allowed to bind with four different member proteins of CD28 family to verify the specificity of the antibody in binding to PD-1. […] A horse radish peroxidase (HRP)-coupled anti-mouse IgG(Sigma) was used as the secondary antibody. After developed with TMB and terminated, it was read for an OD450 value with a microplate reader.

human PD-1-hFc = target: T9, human PD-1-hFc (human, UniProt Q15116 25-167); assay: as above
T9 construct: Commercial protein; also called PD-1 (ACRO); not shown: human Fc (hFc)
From the text: as §5

human ICOS-hFc [13] = target: T4, human ICOS-hFc; assay: as above
From the text: as §5

human CTLA4-hFc [14] = target: T5, human CTLA4-hFc; assay: as above
From the text: as §5

[15] = target: T1, recombinant human PD-1 expressed on the …; assay: flow cytometry on CHO-hPD1 cells
Procedure: as §3

T7 sequence (Q15116 25-167 limits assumed): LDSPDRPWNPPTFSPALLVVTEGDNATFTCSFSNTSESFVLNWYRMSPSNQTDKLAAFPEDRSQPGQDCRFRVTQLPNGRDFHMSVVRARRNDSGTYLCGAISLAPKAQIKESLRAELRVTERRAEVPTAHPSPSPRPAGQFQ
T1 sequence (Q15116 25-288): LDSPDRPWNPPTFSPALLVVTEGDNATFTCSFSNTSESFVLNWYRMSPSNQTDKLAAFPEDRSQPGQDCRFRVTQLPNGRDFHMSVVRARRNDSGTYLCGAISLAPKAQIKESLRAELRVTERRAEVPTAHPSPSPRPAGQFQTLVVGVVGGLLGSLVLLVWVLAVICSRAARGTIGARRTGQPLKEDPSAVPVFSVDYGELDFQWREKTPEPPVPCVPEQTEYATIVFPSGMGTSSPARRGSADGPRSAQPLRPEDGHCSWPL
T5 sequence (P16410 37-162 limits assumed): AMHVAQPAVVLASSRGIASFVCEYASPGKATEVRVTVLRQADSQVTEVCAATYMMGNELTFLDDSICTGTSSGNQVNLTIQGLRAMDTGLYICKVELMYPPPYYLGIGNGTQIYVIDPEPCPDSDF
T9 sequence (Q15116 25-167 limits assumed): as the sequence (Q15116 25-167 limits assumed) above
T6 sequence (Q15116 25-288): as the sequence (Q15116 25-288) above

B1: anti-PD-1 mouse monoclonal antibody PD-1-112-C2 (antibody, V domains shown)
VH: QVQLQQPGAELVKPGASVKLSCKASGYTFTTYYMYWVKQRPGQGLEWIGGINPSNGGTNFNEKFKSKATLTVDKSSSTAYMQLSSLTSEDSAVYYCTRRDSNYDGGFDYWGQGTTLTVSS
VL: DIVLTQSPASLAVSLGQRATISCRASKSVSTSGYSYMHWYQQKPGQPPKLLIYLAYHLESGVPARFSGSGSGTDFTLNIHPVEEEDAATYYCQHSWELPITFGSGTKLEIKR
notes: Mouse monoclonal antibody from a hybridoma
[1]
  IC50: 2.57 nM
[2]
  binding result: no binding (tested: initial concentration of 10 µg/mL)
[3]
  IC50: 1.55 nM
[4]
  IC50: 3.73 nM
Human CD28-hFc [5]
  binding result: no binding (tested: 10 µg/mL)
Human ICOS-hFc [6]
  binding result: no binding (tested: 10 µg/mL)
Human CTLA4-hFc [7]
  binding result: no binding (tested: 10 µg/mL)
[8]
  EC50: 0.109 nM
[9]
  Kd: 0.0435 nM
  koff: 3.18e-05 s⁻¹
  kon: 732000 M⁻¹ s⁻¹
[10]
  EC50: 0.463 nM
[11]
  IC50: 4.61 nM
Human CD28-hFc [12]
  OD450: 0.0625 OD450
Human PD-1-hFc
  OD450: 2.12 OD450
Human ICOS-hFc [13]
  OD450: 0.062 OD450
Human CTLA4-hFc [14]
  OD450: 0.131 OD450
[15]
  EC50: 0.739 nM
